According to patent publication US20130064817A1 (Merck Sharp & Dohme, published 2013):
Blank lines part the entries; values can stand above or below the binder they belong to.

Columns and labels:
human IL-23R [1] = target: T1, human IL-23R (human, UniProt Q5VWK5 24-353, limits assumed); experiment: BIAcore, essentially as in Example 4
T1 construct: KinExA particles are coated with biotinylated IL-23R 'or a fragment thereof, such as the extracellular domain'; also called huIL-23R; hIL-23R
T1 sequence: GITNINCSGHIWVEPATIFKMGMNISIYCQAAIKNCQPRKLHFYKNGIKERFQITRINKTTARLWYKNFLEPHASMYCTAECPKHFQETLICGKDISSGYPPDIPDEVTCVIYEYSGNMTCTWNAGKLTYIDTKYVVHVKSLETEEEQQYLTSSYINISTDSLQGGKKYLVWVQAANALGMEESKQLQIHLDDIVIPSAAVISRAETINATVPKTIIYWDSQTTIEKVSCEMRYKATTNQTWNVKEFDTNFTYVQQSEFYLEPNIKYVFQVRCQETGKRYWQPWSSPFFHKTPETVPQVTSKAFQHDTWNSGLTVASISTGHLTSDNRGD
Experimental: (§1) BIAcore® label-free interaction analysis system determinations are performed essentially as described at Example 4 of U.S. Patent Application Publication No. 2007/0048315. Briefly, ligands (anti-IL-23R mAbs) are immobilized on a BIAcore® label-free interaction analysis system CM5 sensor chip using standard amine-coupling procedure. Kinetic constants for the various interactions are determined using BIAevaluation software 3.1. The Kd is determined using the calculated dissociation and association rate constants.

[2] = target: T2, human IL-23R on human cells (primary splenocytes; KIT225 cells) (human, UniProt Q5VWK5 24-629); experiment: cell-based or functional assay
T2 sequence: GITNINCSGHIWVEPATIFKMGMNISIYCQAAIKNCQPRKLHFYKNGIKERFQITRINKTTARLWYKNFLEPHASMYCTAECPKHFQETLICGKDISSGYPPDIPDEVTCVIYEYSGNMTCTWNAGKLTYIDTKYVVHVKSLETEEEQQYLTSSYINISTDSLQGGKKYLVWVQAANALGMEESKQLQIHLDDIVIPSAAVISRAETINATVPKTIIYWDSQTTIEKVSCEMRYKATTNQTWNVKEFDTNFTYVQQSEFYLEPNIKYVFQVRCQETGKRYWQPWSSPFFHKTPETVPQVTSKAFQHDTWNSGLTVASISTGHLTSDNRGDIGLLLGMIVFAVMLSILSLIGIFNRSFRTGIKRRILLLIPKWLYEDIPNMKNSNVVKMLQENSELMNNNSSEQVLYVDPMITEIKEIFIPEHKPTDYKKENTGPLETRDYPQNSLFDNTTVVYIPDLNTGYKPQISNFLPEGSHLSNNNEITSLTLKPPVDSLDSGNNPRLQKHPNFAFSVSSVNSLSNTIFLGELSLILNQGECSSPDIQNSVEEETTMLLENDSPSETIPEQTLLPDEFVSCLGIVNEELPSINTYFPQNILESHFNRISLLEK

human IL-23R [3] = target: T1, human IL-23R; experiment: BIAcore, antibody immobilized on CM5 chip
Experimental: as §1

human IL-23R [4] = target: T1, human IL-23R; experiment: KinExA
Experimental: The equilibrium dissociation constants (Kd) for anti human IL-23R antibodies are determined using the KinExA 3000 instrument. Sapidyne Instruments Inc., Boise Id., USA KinExA uses the principle of the Kinetic Exclusion Assay method based on measuring the concentration of uncomplexed antibody in a mixture of antibody, antigen and antibody-antigen complex. The concentration of free antibody is measured by exposing the mixture to a solid-phase immobilized antigen for a very brief period of time. In practice, this is accomplished by flowing the solution phase antigen-antibody mixture past antigen-coated particles trapped in a flow cell. Data generated by the instrument are analyzed using custom software. Equilibrium constants are calculated using a mathematical theory based on the following assumptions:
PMMA particles (Sapidyne, Cat No. 440198) are coated with biotinylated IL-23R (or a fragment thereof, such as the extracellular domain) according to Sapidyne “Protocol for coating PMMA particles with biotinylated ligands having short or nonexistent linker arms.” EZ-link TFP PEO-biotin (Pierce, Cat. No. 21219) is used to make biotinylated IL-23R, as per the manufacturer's recommendations (Pierce bulletin 0874).

- Kd (human IL-23R [1]): 0.131 nM
- IC50, IFN-γ production by human primary splenocytes exposed to human IL-23 (170 pM) [2]: 34 pM
- IC50, STAT3 phosphorylation in KIT225 cells stimulated with 138 pM human IL-23 [2]: 34 pM
B1: humanized anti-IL-23R antibody hum20D7 (heavy chain hu20D7-c, light chain hu20D7-II-b) (antibody, human IgG1, kappa, V domains shown)
VH: QVQLVQSGAEVKKPGASVKVSCKASGYTFTNYAMNWVRQAPGQGLEWMGWINTYTGEPTYSDDFKGRVTFTLDTSTSTAYMELRSLRSDDTAVYYCARGGGYDEDYFDYWGQGTLVTVSS
VL: DIVMTQSPLSLPVTPGEPASISCKSSQSLFNTINQKTYLAWYLQKPGQSPQLLIYFASTRESGVPDRFSGSGSGTDFTLKISRVEAEDVGVYYCQQHYDTPWTFGQGTKVEIKR

- Kd (human IL-23R [3]): ~0.3 nM
- Kd (human IL-23R [4]): 0.042 nM
B2: rat anti-human IL-23R antibody 8B10 (antibody, rat IgG2a, V domains shown)
VH: EVKLVESGGGLEQPKGSLKLSCTVSGFDFNSYGMSWVRQAPGKGLDLVADINSKSYNYATYYADSVKDRFTISRDDSQSMVYLEMDNLKTEDTALYYCTVHHSDYFEYWGQGVMVTVSS
VL: DIQMTQSPASLSASLGETVSIECLASEDIYNNLAWYQQKPGKSPQLLIYHASSLQDGVPSRFSGSGSGTQYSLKINSLESEDAATYFCLQDSEYPPTFGGGTKLELKR
notes: also called r8B10; parental rat 8B10 antibody

- Kd (human IL-23R [3]): ~0.085 nM
- Kd (human IL-23R [4]): 0.009 nM
B3: mouse anti-human IL-23R antibody 20D7 (antibody, mouse IgG1, V domains shown)
VH: QIQLVQSGPELKKPGETVKISCKASGYTFTNYAMNWVKQAPGKGLKWMGWINTYTGEPTYSDDFKGRFAFSLETSANTAYLQINNLKNEDTAAYFCTRGGGYDEDYFDYWGQGTTLTVSS
VL: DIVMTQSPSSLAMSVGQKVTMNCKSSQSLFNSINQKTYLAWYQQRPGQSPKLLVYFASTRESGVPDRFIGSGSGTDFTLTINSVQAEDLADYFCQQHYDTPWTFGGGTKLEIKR
notes: also called m20D7; mouse 20D7 antibody
